Consider 6 molecules from paper PMC4518712, “Regulation of the PI3K pathway through a p85α monomer–homodimer equilibrium” (eLife, 2015).

Where “and” joins values, the source holds several entries; their conditions need not be identical. Equal entries are not always repeated.

Broadly, the Kd is the free concentration of one partner at which half of the binding sites on the other are occupied at equilibrium, for simple one-to-one binding. In general, stoichiometry N refers to the number of molecules, sites or subunits per partner or assembly.

In one data set the target is class I PXXP peptide. The settings on record: cited from earlier work.
The next data set concerns the target Fyn SH3 (Homo sapiens) (UniProt P06241). The note with it: cited from earlier work.
The target of data set [1] is p85α SH3-PR1-BH-PR2 fragment (residues 1–333) (UniProt P27986). Kind of data set: AUC; sedimentation equilibrium, 20°C, samples at 1.0, 0.5 and 0.25 mg/ml, 11.8, 12.8, 13.8 krpm; global fit to a monomer–dimer–tetramer model (p85α, 1–333) or a monomer–dimer model (PR1-BH); constant of dimerization (dimer to monomers); reducing conditions.
Data set [2] shares this target. Kind of data set: MST; Alexa647-labelled protein at 20 nM, the same protein unlabelled titrated from 50,000 nM in 1:1 dilutions; 20 mM sodium phosphate pH 8, 150 mM NaCl, 2 mM EDTA, 5 mM DTT; dimerization.
Data set [3] has as its target GST-ΔSH3 p85α (residues 86–742, comprising PR1 to cSH2). Kind of data set: ITC; MicroCal ITC200, 25°C, 10 mM sodium phosphate pH 7.5, 150 mM NaCl, 5 mM DTT; PR1 peptide injected into p85α SH3 (100 μM) in the cell, or SH3 (400 μM) in the syringe and GST-ΔSH3 p85α in the cell.
The next data set concerns the target T1, p85α SH3 (residues 1–81) (UniProt P27986 1-81).
T1 construct: p85α residues 1–81; pET28b
The description is as above. The note with it: both partners purified.

Data set [4] concerns the molecule itself. In words: MST; Alexa647-labelled protein at 20 nM, the same protein unlabelled titrated from 50,000 nM in 1:1 dilutions; 20 mM sodium phosphate pH 8, 150 mM NaCl, 2 mM EDTA, 5 mM DTT; dimerization.
Data set [5] concerns the molecule itself. In words: AUC; sedimentation equilibrium, 20°C, samples at 1.0, 0.5 and 0.25 mg/ml, 11.8, 12.8, 13.8 krpm; global fit to a monomer–dimer–tetramer model (p85α, 1–333) or a monomer–dimer model (PR1-BH); constant of dimerization (dimer to monomers); reducing conditions.

T1 sequence (P27986 1-81): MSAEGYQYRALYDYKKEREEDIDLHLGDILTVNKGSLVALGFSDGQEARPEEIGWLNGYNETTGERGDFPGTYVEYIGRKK
Chain of Fyn SH3 (Homo sapiens) (P06241 79-146): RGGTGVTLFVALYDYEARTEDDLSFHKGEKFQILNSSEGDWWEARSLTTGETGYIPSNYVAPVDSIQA

As to p85α SH3 SH3 (from UniProt P27986), the dissociation constant Kd in the data set with class I PXXP peptide is 40 µM.

Regarding p85α PR1 PR1 (from UniProt P27986), the Kd with Fyn SH3 (Homo sapiens) was 16 µM.

“p85α SH3-PR1-BH-PR2 fragment (residues 1–333) (from UniProt P27986 1-333) (domain or fragment)”: the dissociation constant (Kd) worked out at 530 nM in data set [1] and 441 nM in data set [2].

For “p85α SH3 (residues 1–81) (from UniProt P27986 1-81) (domain or fragment)”, in data set [3], the Kd is 16.8 µM, the dH was -13.4 kJ/mol and the stoichiometry N was 0.8.

B1: synthetic p85α PR1 peptide PKPRPPRPLPVAP (peptide)
peptide: PKPRPPRPLPVAP
notes: p85α PR1 region, begins at P87; source: synthetic peptide
For B1, in the data set with p85α SH3 (residues 1–81), the dissociation constant (Kd) was 23.3 µM and 24 µM; the dH was -4.9 kJ/mol; the “stoichiometry N” value came out at 1.06.

B2: p85α PR1-BH (residues 79–301) (domain or fragment, UniProt P27986 79-301, looked up)
chain: RKKISPPTPKPRPPRPLPVAPGSSKTEADVEQQALTLPDLAEQFAPPDIAPPLLIKLVEAIEKKGLECSTLYRTQSSSNLAELRQLLDCDTPSVDLEMIDVHVLADAFKRYLLDLPNPVIPAAVYSEMISLAPEVQSSEEYIQLLKKLIRSPSIPHQYWLTLQYLLKHFFKLSQTSSKNLLNARVLSEIFSPMLFRFSAASSDNTENLIKVIEILISTEWNER
modifications: Alexa647 label on the labelled copy (MST only)
notes: p85α residues 79–301; pET28b
As for B2, the Kd was 22.3 µM and 23 µM in data set [4]; 163 µM in data set [5].
